Measurements: patent US20170009278A1 (NAVINCI DIAGNOSTICS, published 2017)

Target: T1, β catenin (UniProt P35222 2-781)
T1 construct: Detected with antibody Sc7199 (Santa-Cruz)
T1 sequence (looked up): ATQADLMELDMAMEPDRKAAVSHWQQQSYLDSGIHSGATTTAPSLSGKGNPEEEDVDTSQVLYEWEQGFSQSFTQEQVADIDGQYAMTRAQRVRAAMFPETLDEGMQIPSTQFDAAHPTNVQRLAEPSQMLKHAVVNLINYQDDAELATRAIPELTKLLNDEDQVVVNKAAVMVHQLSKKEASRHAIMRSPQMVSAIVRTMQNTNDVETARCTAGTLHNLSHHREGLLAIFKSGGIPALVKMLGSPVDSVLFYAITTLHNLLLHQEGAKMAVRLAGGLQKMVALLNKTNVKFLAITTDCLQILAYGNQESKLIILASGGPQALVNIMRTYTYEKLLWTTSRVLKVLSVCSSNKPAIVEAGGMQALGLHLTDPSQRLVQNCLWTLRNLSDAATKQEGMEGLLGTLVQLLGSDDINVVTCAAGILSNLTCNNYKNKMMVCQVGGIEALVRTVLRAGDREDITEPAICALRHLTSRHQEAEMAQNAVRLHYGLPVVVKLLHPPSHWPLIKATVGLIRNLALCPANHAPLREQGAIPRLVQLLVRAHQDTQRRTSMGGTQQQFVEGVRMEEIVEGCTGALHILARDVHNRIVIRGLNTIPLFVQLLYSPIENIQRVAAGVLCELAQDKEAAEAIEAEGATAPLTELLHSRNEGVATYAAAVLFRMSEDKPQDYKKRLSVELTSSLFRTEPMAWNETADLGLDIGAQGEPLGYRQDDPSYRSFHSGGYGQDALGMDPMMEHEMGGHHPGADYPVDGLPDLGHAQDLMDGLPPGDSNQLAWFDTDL
Assay: in situ prox-HCR and in situ PLA on DLD1 cells and colon tissue
Experimental: For in situ PLA experiments the DuoLink kit (Olink Bioscience) was used according to manufacturer recommendations. Briefly DLD1 cells were rehydrated and permeabilized as described for prox-HCR. […] Cells were washed with DuoLink Wash buffer A two time for 5 min and incubated with proximity probes (PLUS and MINUS, Olink Bioscience) in antibody diluent (Olink Bioscience) for 1 h at 37° C. After a new round of washing steps ligation mix was applied to the cells and incubated for 30 min at 37° C. Additional washing was followed by RCA and fluorescent detection of the rolling circle products. Cells were counterstained with Hoechst and mounted as described above.
Fresh frozen healthy colon tissue was fixed using 3.7% formaldehyde solution at RT for 15 min. Slides were washed with PBS twice and then blocked using Duolink blocking reagent for 60 min at 37° C. […] The next day the slides were washed with PBS 3×2 min and blocked again for 30 min. The slides were incubated with proximity-probes directed against mouse and rabbit IgG for 1 h at 37° C. in HCR buffer. After two more washes with HCR buffer the slides were incubated with activator oligonucleotides for 30 min at 37° C. Slides were washed again twice with HCR buffer and slides were incubated with 20 nM HCR hairpins in HCR buffer for 1 h at 37° C. […]

binding result: binds
B1: E-cadherin (receptor, UniProt P12830 155-882, looked up)
chain: DWVIPPISCPENEKGPFPKNLVQIKSNKDKEGKVFYSITGQGADTPPVGVFIIERETGWLKVTEPLDRERIATYTLFSHAVSSNGNAVEDPMEILITVTDQNDNKPEFTQEVFKGSVMEGALPGTSVMEVTATDADDDVNTYNAAIAYTILSQDPELPDKNMFTINRNTGVISVVTTGLDRESFPTYTLVVQAADLQGEGLSTTATAVITVTDTNDNPPIFNPTTYKGQVPENEANVVITTLKVTDADAPNTPAWEAVYTILNDDGGQFVVTTNPVNNDGILKTAKGLDFEAKQQYILHVAVTNVVPFEVSLTTSTATVTVDVLDVNEAPIFVPPEKRVEVSEDFGVGQEITSYTAQEPDTFMEQKITYRIWRDTANWLEINPDTGAISTRAELDREDFEHVKNSTYTALIIATDNGSPVATGTGTLLLILSDVNDNAPIPEPRTIFFCERNPKPQVINIIDADLPPNTSPFTAELTHGASANWTIQYNDPTQESIILKPKMALEVGDYKINLKLMDNQNKDQVTTLEVSVCDCEGAAGVCRKAQPVEAGLQIPAILGILGGILALLILILLLLLFLRRRAVVKEPLLPPEDDTRDNVYYYDEEGGGEEDQDFDLSQLHRGLDARPEVTRNDVAPTLMSVPRYLPRPANPDEIGNFIDENLKAADTDPTAPPYDSLLVFDYEGSGSEAASLSSLNSSESDKDQDYDYLNEWGNRFKKLADMYGGGEDD
notes: whole, on cells; Detected with antibody 610182 (BD Biosciences)
